Data reported in paper PMC4417206.

target: T1, N-ht-CRP (cAMP receptor protein) (Shewanella oneidensis MR-1) (UniProt Q8EJ49); test: EMSA; settings: 10 mM Tris-HCl pH 7.6, 0.5 mM EDTA, 100 mM KCl, 50 ug/mL BSA, 50 ug/mL poly(dI-dC), 50 uM cAMP, 10% glycerol, 2 nM probe, 0-200 ng CRP in 20 uL, on ice 30 min …
T1 sequence: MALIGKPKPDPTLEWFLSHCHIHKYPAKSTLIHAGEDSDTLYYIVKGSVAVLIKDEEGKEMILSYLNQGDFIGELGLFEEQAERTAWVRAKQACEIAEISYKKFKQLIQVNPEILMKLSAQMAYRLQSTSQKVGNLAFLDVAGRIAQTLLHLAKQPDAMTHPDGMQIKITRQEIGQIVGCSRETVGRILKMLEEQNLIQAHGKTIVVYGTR

Question: Which binding does the source give for “CCTTGGGGAATTCTATTTCCAGCATCCACTTAAGTCGCTTCTAGTGATCAAATACACAGACATAGAATCTGTTGGCGCTAGAGCATAGCGGTTAAGCAATGCCAAACCTATGCAGGGAAAA (double strand) [PBmtrC2]” here?
Answer: no binding

Question: How did the binding turn out when “CCCGCTTAAAGTGACTGATAAATACCAATGACTTAGTTAGCCTTACAGGTGGGATCTAATTCC (double strand) [PBomcA2]” was run?
Answer: no binding

Question: Which binding does the source give for “TCCACCTCACTATCTGTTGTTTTTTTGCTCTCAATTTGTTTTTCCCTTGTGGTTTAACTACCTCTTTAGAAATAGAAAGATCCAAGTCACACATTAGCAAAGGCTTAGAAGATTTTAACGGCATGTTGGGTTAGCCTTTCCTTGGGGAATTCTATTTCCAGCATCCACTTAAGTCGCTTCTAGTGATCAAATACACAGACATAGAATCTGTTGGCGCTAGAGCATAGCGGTTAAGCAATGCCAAACCTATGCAGGGAAAA (double strand) [PBmtrC1]” here?
Answer: binds more weakly
